# Measurements from IntAct's records for PubMed 29467281.
# B1: Unconventional myosin-VI (Homo sapiens), Q9UM54-1 (parent)
# chain: MEDGKPVWAPHPTDGFQMGNIVDIGPDSLTIEPLNQKGKTFLALINQVFPAEEDSKKDVEDNCSLMYLNEATLLHNIKVRYSKDRIYTYVANILIAVNPYFDIPKIYSSEAIKSYQGKSLGTRPPHVFAIADKAFRDMKVLKMSQSIIVSGESGAGKTENTKFVLRYLTESYGTGQDIDDRIVEANPLLEAFGNAKTVRNNNSSRFGKFVEIHFNEKSSVVGGFVSHYLLEKSRICVQGKEERNYHIFYRLCAGASEDIREKLHLSSPDNFRYLNRGCTRYFANKETDKQILQNRKSPEYLKAGSMKDPLLDDHGDFIRMCTAMKKIGLDDEEKLDLFRVVAGVLHLGNIDFEEAGSTSGGCNLKNKSAQSLEYCAELLGLDQDDLRVSLTTRVMLTTAGGTKGTVIKVPLKVEQANNARDALAKTVYSHLFDHVVNRVNQCFPFETSSYFIGVLDIAGFEYFEHNSFEQFCINYCNEKLQQFFNERILKEEQELYQKEGLGVNEVHYVDNQDCIDLIEAKLVGILDILDEENRLPQPSDQHFTSAVHQKHKDHFRLTIPRKSKLAVHRNIRDDEGFIIRHFAGAVCYETTQFVEKNNDALHMSLESLICESRDKFIRELFESSTNNNKDTKQKAGKLSFISVGNKFKTQLNLLLDKLRSTGASFIRCIKPNLKMTSHHFEGAQILSQLQCSGMVSVLDLMQGGYPSRASFHELYNMYKKYMPDKLARLDPRLFCKALFKALGLNENDYKFGLTKVFFRPGKFAEFDQIMKSDPDHLAELVKRVNHWLTCSRWKKVQWCSLSVIKLKNKIKYRAEACIKMQKTIRMWLCKRRHKPRIDGLVKVGTLKKRLDKFNEVVSVLKDGKPEMNKQIKNLEISIDTLMAKIKSTMMTQEQIQKEYDALVKSSEELLSALQKKKQQEEEAERLRRIQEEMEKERKRREEDEKRRRKEEEERRMKLEMEAKRKQEEEERKKREDDEKRIQAEVEAQLARQKEEESQQQAVLEQERRDRELALRIAQSEAELISDEAQADLALRRNDGTRPKMTPEQMAKEMSEFLSRGPAVLATKAAAGTKKYDLSKWKYAELRDTINTSCDIELLAACREEFHRRLKVYHAWKSKNKKRNTETEQRAPKSVTDYDFAPFLNNSPQQNPAAQIPARQREIEMNRQQRFFRIPFIRPADQYKDPQSKKKGWWYAHFDGPWIARQMELHPDKPPILLVAGKDDMEMCELNLEETGLTRKRGAEILPRQFEEIWERCGGIQYLQNAIESRQARPTYATAMLQSLLK
# partner: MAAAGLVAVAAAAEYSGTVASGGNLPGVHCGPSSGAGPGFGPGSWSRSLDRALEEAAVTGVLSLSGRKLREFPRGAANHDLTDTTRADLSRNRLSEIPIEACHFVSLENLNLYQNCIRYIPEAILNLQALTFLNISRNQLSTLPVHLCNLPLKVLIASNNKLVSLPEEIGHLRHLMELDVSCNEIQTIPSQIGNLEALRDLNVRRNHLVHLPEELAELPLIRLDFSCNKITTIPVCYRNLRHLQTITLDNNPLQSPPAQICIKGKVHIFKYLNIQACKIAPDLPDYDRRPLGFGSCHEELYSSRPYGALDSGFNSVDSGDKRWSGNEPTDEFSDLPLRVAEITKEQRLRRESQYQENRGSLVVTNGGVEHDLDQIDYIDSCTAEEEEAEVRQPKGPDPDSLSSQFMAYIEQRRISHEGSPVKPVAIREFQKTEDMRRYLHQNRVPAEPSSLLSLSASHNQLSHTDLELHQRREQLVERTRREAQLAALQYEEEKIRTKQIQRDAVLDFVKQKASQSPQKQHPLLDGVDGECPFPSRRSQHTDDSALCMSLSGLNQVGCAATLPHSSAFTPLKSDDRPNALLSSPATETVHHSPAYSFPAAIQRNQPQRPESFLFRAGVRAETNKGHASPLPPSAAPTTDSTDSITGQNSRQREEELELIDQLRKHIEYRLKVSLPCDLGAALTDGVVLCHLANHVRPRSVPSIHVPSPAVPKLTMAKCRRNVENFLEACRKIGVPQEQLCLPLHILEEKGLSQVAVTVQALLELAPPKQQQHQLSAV
# Variants of: B1
# Settings: with lrch3_human LRCH3, Q96II8
row,Variant,effect of a mutation on the interaction
1,W1192L,disrupting interaction strength
2,R1107A;R1108A;L1109A,disrupting interaction strength
